Source: the RNAGym collection of RNA variant scans (doi:10.1073/pnas.2313332121)
This sample holds only a part of the variants without activity.

B1: TPR 5TU (parent)
chain: GGAUCUUCUCGAUCUAACAAAAAAGACAAAUCUGCCACAAAGCUUGAGAGCAUCUUCGGAUGCAGAGGCGGCAGCCUUCGGUGGCGCGAUAGCGCCAACGUUCUCAACUAUGACACGCAAAACGCGUGCUCCGUUGAAUGGAGUUUAUCAUG

Variants of: B1
Experiment: polymerase ribozyme fitness, log enrichment relative to wild type (log ratio); higher = more active; in vitro selection for triplet polymerase activity
How it was run: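 Mutant libraries of each subunit of a heterodimeric triplet polymerase ribozyme were built by PCR and transcribed. Each library went through one round of in vitro selection in triplicate: annealing with biotinylated primer, partner subunit and triplets, frozen incubation at −7 °C, gel excision of extended constructs, streptavidin-bead capture and RT-PCR. Input and output libraries were Illumina-sequenced; only genotypes with ≥10 input reads and ≥1 read per output were kept. Fitness is log2(genotype enrichment/wild-type enrichment), using inverse-variance-weighted replicate averages.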

Going from GGAUCUUCUCGAUCUAACAAAAAAGACAAAUCUGCCACAAAGCUUGAGAGCAUCUUCGGAUGCAGAGGCGGCAGCCUUCGGUGGCGCGAUAGCAGCAACGUUCUCAACUAUGACACGCAAAACGCGUGCUCCAGUGUAUGGAGUUUAUCAUG to GGAUCUUCUCGAUCUAACAAAAAAGACAAAUCUGCCACAAAGCUUGAGAGCAUCUUCGGAUGCAGAGGCGGCAGCCUUCGGUGGCGCGAUAGCACCAACGUUCUCAACUAUGACUCGCAAAACGCGUGCUCCGUUGAAUGGAGUUUAUCAUG, the “polymerase ribozyme fitness (log ratio)” value rises from -4.11 to -1.76.

Going from GGAUCUUCUCGAUCUAACAAAAAAGACAAAUCUGCCACAAAGCUUGAGAGCAUCUUCGGAUGCAGAGGCGGCAGCCUUCGGUGGCGCGAUAGCCCCUACGUUCUCAACUAUGACACGCAAAACGCGUGCUCCGUUUAAUGGAGUUUAUCAUG to GGAUCUUCUCGAUCUAACAAAAAAGACAAAUCUGCCACAAAGCUUGAGAGCAUCUUCGGAUGCAGAGGCGGCAGCCUUCGGUGGCGCGAUAGCACCAACGUUCUCAACUAUGACACGCAAAACGCGUGCUCCGUUGAAUGGAGUUUAUUAUG, the “polymerase ribozyme fitness (log ratio)” value rises from -3.38 to -1.24.

First: GGAUCUUCUCGAUCUAACAAAAAAGACAAAUCUGCCACAAAGCUUGAGAGCAUCUUCGGAUGCAGAGGCGGCAGCCUUCGGUGGCGCGAUAGCACCAACGUUCUCCACUAUGACACGCAAAACGCGUGCUCCGUUAAAUGGAGUUUAUCAUG
Second: GGAUCUUCUCGAUCUAACAAAAAAGACAAAUCUGCCACAAAGCUUGAGAGCAUCUUCGGAUGCAGAGGCGGCAGCCUUCGGUGGCGCGAUAGCACCAACGUUCUCAACUAUGACACGCAAAACGCGUGCUUCGUUGAAUGGAGUUUAUCAUG
The “polymerase ribozyme fitness (log ratio)” value of the first is lower: -0.404 for the first, 0.309 for the second.

Compared with GGAUCUUCUCGAUCUAACAAAAAAGACAAAUCUGCCACAAAGCUUGAGAGCAUCUUCGGAUGCAGAGGCGGCAGCCUUCGGUGGCGCGAUAGCACCAACGCUCUCAACUAUGACACGCAAAACGCGUGCUCCGUUGAAUGGAGUUUAUCAUG, GGAUCUUCUCGAUCUAACAAAAAAGACAAAUCUGCCACAAAGCUUGAGAGCAUCUUCGGAUGCAGAGGCGGCAGCCUUCGGUGGCGCGAUAGCACCAACGUUCUCAACUAUGACACGCAAAACGCGUGCUCCGUUGAAUGGAGUUUAUCAUG is higher in “polymerase ribozyme fitness (log ratio)” value: -0.823 for the first, -0.622 for the second.

First: GGAUCUUCUCGAUCUAACAAAAAAGACAAAUCUGCCACAAAGCUUGAGAGCAUCUUCGGAUGCAGAGGCGGCAGCCUUCGGUGGCGCGAUAGCCCCAACGUUCUCAACUAUGACACGCAAAACGCGUGCUCCGUUGAAUGGAGUUUAUCAUG
Second: GGAUCUUCUCGAUCUAACAAAAAAGACAAAUCUGCCACAAAGCUUGAGAGCAUCUUCGGAUGCAGAGGCGGCAGCCUUCGGUGGCGCGAUAGCACCAACGUUCUCAACUAUGACACGCAAAACGCGGGCUCCGUUGAAUGGAGUUGAUCAUG
The “polymerase ribozyme fitness (log ratio)” value of the first is higher: -0.474 for the first, -3.33 for the second.

Going from GGAUCUUCUCGAUCUAACAAAAAAGACAAAUCUGCCACAAAGCUUGAGAGCAUCUUCGGAUGCAGAGGCGGCAGCCUUCGGUGGCGCGAUAGCACCGACGUUCUCAACUAUGACACGCAAAACGCGUGCUCCGUUGAAUGGAGUUUAUCAUG to GGAUCUUCUCGAUCUAACAAAAAAGACAAAUCUGCCACAAAGCUUGAGAGCAUCUUCGGAUGCAGAGGCGGCAGCCUUCGGUGGCGCGAUAGCACCAACGCUCUCAACUAUGACACGCAAAACGCGUGCUCCGUUCGAUGGAGUUUAUCAAG, the “polymerase ribozyme fitness (log ratio)” value falls from -2.19 to ≤ -4.2.

First: GGAUCUUCUCGAUCUAACAAAAAAGACAAAUCUGCCACAAAGCUUGAGAGCAUCUUCGGAUGCAGAGGCGGCAGCCUUCGGUGGCGCGAUAGCACCAACGGUCUCAACUAUGACACGCAAAACGCGUGCUCCGUUGAAUGGAGUUUAACAUG
Second: GGAUCUUCUCGAUCUAACAAAAAAGACAAAUCUGCCACAAAGCUUGAGAGCAUCUUCGGAUGCAGAGGCGGCAGCCUUCGGUGGCGCGAUAGCACCAACGUUCUCAACUAUGUCACGCAUAACGCGUGCUCCGUUGAAUGGAGUUUAUCAUG
The “polymerase ribozyme fitness (log ratio)” value of the first is lower: -4.03 for the first, -1.56 for the second.

First: GGAUCUUCUCGAUCUAACAAAAAAGACAAAUCUGCCACAAAGCUUGAGAGCAUCUUCGGAUGCAGAGGCGGCAGCCUUCGGUGGCGCGAUAGCACCAACGUUCUCAACUAUGACACCCAAAACGCGUGCUCCGUUGGAUGGAGUUUAUCAUG
Second: GGAUCUUCUCGAUCUAACAAAAAAGACAAAUCUGCCACAAAGCUUGAGAGCAUCUUCGGAUGCAGAGGCGGCAGCCUUCGGUGGCGCGAUAGCACCUACGUUCUCAACUAUGACACGCAAAACGGGUGCUCCGUUGAAUGGAGUUUAUCAUG
The “polymerase ribozyme fitness (log ratio)” value of the first is lower: -3.09 for the first, -2.14 for the second.

Going from GGAUCUUCUCGAUCUAACAAAAAAGACAAAUCUGCCACAAAGCUUGAGAGCAUCUUCGGAUGCAGAGGCGGCAGCCUUCGGUGGCGCGAUAGCACCAACGUUCUCAACUAUGACACGCAAAACGCGUGCUCCGUUCAAUGGAGUUUAUCAUG to GGAUCUUCUCGAUCUAACAAAAAAGACAAAUCUGCCACAAAGCUUGAGAGCAUCUUCGGAUGCAGAGGCGGCAGCCUUCGGUGGCGCGAUAGCCCCAACGUUCUCCACUAUGACAUGCAAAACGCGUGCUCCGUUGAAUGGAGUUUAUCAUG, the “polymerase ribozyme fitness (log ratio)” value rises from -3.98 to -3.12.

In the case of GGAUCUUCUCGAUCUAACAAAAAAGACAAAUCUGCCACAAAGCUUGAGAGCAUCUUCGGAUGCAGAGGCGGCAGCCUUCGGUGGCGCGAUAGCACCAACGUUCUCAACUAUGACACGCACAACGCGUGCUCCGUUGAAUGGAGUUUAUCAUG, the “polymerase ribozyme fitness (log ratio)” value is reported as -0.523.
